Assay results published in patent publication US20140235553A1 (REGENTS OF THE UNIVERSITY OF COLORADO A BODY CORPRATE, published 2014).

B1: NTD-αA crystallin fusion protein (other)
chain: MGSRVQIRCRFRNSTRDVTIQHPWFKRTLGPFYPSRLFDQFFGEGLFEYDLLPFLSSTISPYYRQSLFRTVLDSGISEVRSDRDKFVIFLDVKHFSPEDLTVKVQDDFVEIHGKHNERQDDHGYISREFHRRYRLPSNVDQSALSCSLSADGMLTFCGPKIQTGLDATHAERAIPVSREEKPTSAPSS
notes: also called NTD modified α-crystallin subunit (αA)
B2: NTD-αB crystallin fusion protein (other)
chain: MGSRVQIRCRFRNSTRDIAIHHPWIRRPFFPFHSPSRLFDQFFGEHLLESDLFPTSTSLSPFYLRPPSFLRAPSWFDTGLSEMRLEKDRFSVNLDVKHFSPEELKVKVLGDVIEVHGKHEERQDEHGFISREFHRKYRIPADVDPLTITSSLSSDGVLTVNGPRKQVSGPERTIPITREEKPAVTAAPKK
notes: also called NTD-HSPB5; A B NgC
B3: αB-crystallin (HSPB5), no transduction peptide (other)
chain: MDIAIHHPWIRRPFFPFHSPSRLFDQFFGEHLLESDLFPTSTSLSPFYLRPPSFLRAPSWFDTGLSEMRLEKDRFSVNLDVKHFSPEELKVKVLGDVIEVHGKHEERQDEHGFISREFHRKYRIPADVDPLTITSSLSSDGVLTVNGPRKQVSGPERTIPITREEKPAVTAAPKK
notes: also called native αB crystallin; unfused αB crystallin

Experiments:
[1] = target: the molecule itself; experiment: size exclusion chromatography, self-association into oligomeric complexes
[2] = target: the molecule itself; experiment: size exclusion chromatography (Superose 6), self-association into oligomeric complexes
[3] = target: B2; experiment: subunit exchange: AlexaFluor-labeled NTD-αB crystallin with 10-fold molar excess of unlabeled αB crystallin at 37° C., size exclusion FPLC, fluorescence of fractions

B1: binds [1].

B2: binds [2].

B3: binds [3].
